# In article PMC12614781, “The VelB IDD promotes selective heterodimer formation of velvet proteins for fungal development” (Life Science Alliance, 2025):
# T1: VelB-GFP (A. nidulans Velvet-like B, full length, fused to GFP) (A. nidulans, UniProt C8VTS4 1-369)
# T1 construct: Velvet-like B (VelB), A. nidulans, AN0363, full-length protein with the 99-aa intrinsically disordered domain (IDD) inside the velvet domain; Strains AGB1132 (wild-type background), AGB1190 (veA deletion background), AGB1136 (with vosA:ha), AGB1149 (with veA:ha); plasmid pME4687; Fusion printed as 67 kD; also called velB::sgfp; full-length VelB-GFP; source: A. nidulans, velB:gfp in locus under …
# T1 sequence (looked up): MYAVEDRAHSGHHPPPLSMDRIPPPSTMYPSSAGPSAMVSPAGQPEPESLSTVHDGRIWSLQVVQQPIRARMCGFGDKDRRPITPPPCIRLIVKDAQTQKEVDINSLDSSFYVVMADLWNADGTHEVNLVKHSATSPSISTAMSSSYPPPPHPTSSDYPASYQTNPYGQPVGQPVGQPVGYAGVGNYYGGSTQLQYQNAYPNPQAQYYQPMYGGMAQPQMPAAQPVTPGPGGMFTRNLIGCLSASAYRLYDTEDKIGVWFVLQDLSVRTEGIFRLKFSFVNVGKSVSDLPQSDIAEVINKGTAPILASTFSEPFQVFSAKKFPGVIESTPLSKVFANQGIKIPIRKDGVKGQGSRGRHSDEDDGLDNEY
# Target: T1, VelB-GFP (A. nidulans Velvet-like B, …)
# Test: co-IP; GFP and HA (anti-HA agarose) pull-downs from vegetative mycelium of A. nidulans strains expressing veA:HA or vosA:HA and velB:gfp or velB^ΔIDD:gfp under native promoters, intact veA; Western with GFP and HA antibodies
# Conditions: partners not purified
binder,measurement,value
"VosA-HA (A. nidulans VosA with HA tag) (natural protein, UniProt Q5BBX1 1-430, looked up, Viability of spores A (VosA), A. nidulans, AN1959; the vosA gene amplified with its 5' flanking region; Plasmid pME4693; strains AGB1136 (with velB:gfp) and AGB1137 (with velB^ΔIDD:gfp); source: A. nidulans, vosA:ha under its native promoter, in extract of vegetative mycelium) MSAANYPDPSLPRPSTSDDFELIVRQNPNRARVAGGKEKERKPVDPPPIVQIRVREEGTYLAQHYLQSPYFFMSCSLYDAQEDAPASIPPSTALTGTLVSSLHRLKDVDNTDGGFFVWGDLSIKVEGDFRLKFSLFEMRKTDVVFLKSIVSERFTVSPPKSFPGMAESTFLSRSFADQGVKLRIRKEPRTLIKRTAPRPEEYPQAAIPRSPSDRTAMQIPGSSYPAPPYQPTSRDYSYYAPVKRQRTSVDYGARGMYDADGRMRQMETYPQTATLYGQPGGYPTPMMGYPSGHGGVPDYAMSYGLPPSAQVPQMQDPAAQSRSSQQATMQSLGMVNPPGTPTPDSARAMMQQAYPRPQYSASTAVLPPLQQSRNYPQGTNGATRGYYEQSPQATPILPSQPLGTSEAERYGVPPGHTGYDHTGSANGTPR",fold abundance of VosA in the GFP pull-down against the VelB^ΔIDD-GFP strain,10 fold
